Two molecules from patent publication WO2014037419A1 (dated 2014) can be followed below.

Test [1] has as its target T1, Recombinant human CD74 73-232 (human, UniProt P04233 73-296).
T1 construct: Bought from R&D Systems (NP_004346.1); The entry includes the N-terminal hemagglutinin tag; also called R&D systems 3590-CD
T1 sequence: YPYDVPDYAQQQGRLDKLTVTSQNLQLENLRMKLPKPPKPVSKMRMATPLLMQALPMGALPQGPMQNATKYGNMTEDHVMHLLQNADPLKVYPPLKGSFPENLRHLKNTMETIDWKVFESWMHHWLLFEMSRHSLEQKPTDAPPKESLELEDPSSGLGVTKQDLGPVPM
Put plainly: BIAcore SPR, biotinylated Nb_49 on streptavidin chip, recombinant human CD74 73-232 at 0.05-500 nM as analyte. (Surface plasmon resonance follows binding to a sensor surface in real time, without labels.)

For test [2], the target named is T2, Mouse CD74 on cells (C57Black/6 PECs, MC-38, 3LL) (mouse) (UniProt P04441).
T2 sequence: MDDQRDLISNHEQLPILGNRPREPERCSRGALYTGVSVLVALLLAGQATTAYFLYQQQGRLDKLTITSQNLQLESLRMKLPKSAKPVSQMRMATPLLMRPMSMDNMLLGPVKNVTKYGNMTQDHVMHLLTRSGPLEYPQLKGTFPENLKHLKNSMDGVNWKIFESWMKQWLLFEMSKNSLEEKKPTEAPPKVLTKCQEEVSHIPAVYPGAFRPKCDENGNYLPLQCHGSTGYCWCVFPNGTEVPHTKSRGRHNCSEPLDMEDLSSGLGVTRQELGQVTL
Put plainly: FACS competition, PECs of MIF-/- mice, APC-labeled MIF 200ng as competitor/tracer plus Nb_49 (5 ug or 0.3 nM).

The target of test [3] is T2, Mouse CD74 on cells (C57Black/6 PECs, MC-38, 3LL) (mouse). Kind of test: FACS competition, PECs of WT mice, APC-labeled MIF 200ng as competitor/tracer plus Nb_49 (5 ug or 0.3 nM).
Test [4] has the same target. Put plainly: FACS, PECs of MIF-/- mice, APC-labeled MIF 200ng alone (cells without MIF: 25.6). Background: In flow cytometry, cells or beads pass a laser one at a time.
The target is the same in test [5]. Put plainly: FACS, PECs of WT mice, APC-labeled MIF 200ng alone (cells without MIF: 22.4).
Test [6] has the same target. Kind of test: FACS, PECs of WT mice, APC-labeled MIF 200ng pre-incubated with the small molecule ISO-1 (20 nM).
Test [7] has the same target. Put plainly: FACS, PECs of MIF-/- mice, APC-labeled MIF 200ng pre-incubated with the small molecule ISO-1 (20 nM).

In general, Kd refers to the concentration at which binding is half-saturated. As a reminder, the koff is the rate constant with which the complex falls apart. Broadly, the kon is a measure of how fast the partners come together.

B1: NbhCD74n49 (VHH)
VHH: QVQLQESGGGSVQAGGSLRLSCVASGLVYSLKAYDWGWARQAPGKECELVGRIMPNGATVYIDSVKGRFIISRENSNNTVYLQMNSLKFEDTAVYYCARVGDPSGGWCKGQGTQVTVSS
notes: also called Nb_49; NB_49
Turning to B1, in test [1], the Kd was 5.73 nM, the koff was found to be 0.000581 s⁻¹ and the kon came out at 102000 M⁻¹ s⁻¹. For the same molecule, the mean fluorescence intensity of APC-labeled MIF bound to the cells in test [2] was determined as 69.4. Further, the mean fluorescence intensity of APC-labeled MIF bound to the cells in test [3] turned out to be 46.2.

B2: Recombinant human MIF 2-115 (ligand)
chain: PMFIVNTNVPRASVPDGFLSELTQQLAQATGKPPQYIAVHVVPDQLMAFGGSSEPCALCSLHSIGKIGGAQNRSYSKLLCGLLAERLRISPDRVYINYYDMNAASVGWNNSTFA
For the molecule B2, the mean fluorescence intensity of APC-labeled MIF bound to the cells in test [4] was found to be 120; in test [5] it was 64.8; in test [6], 49.9; in test [7], 61.
